According to patent US20090324700A1, “METHODS AND COMPOSITIONS FOR THE INHIBITION OF CATHEPSINS” (priority 2003, published 2009):

Assays:
[1] = tested on: secondary anti-LCMV CD8 cells; conditions: mouse, in vivo
[2] = tested on: RelA^−/− MEFs; experiment: ROS production (dihydroethidium), RelA^−/− MEFs; type: cell-based, mouse; conditions: TNF-α 0.2 ng/ml, CHX 0.1 μg/ml; FIG. 5D
Protocol: Death effector assays. Death effector pathways were induced in […] MEFs by treatment TNF-α (0.2 ng/ml) and CHX (0.1 μg/ml). Assays for executioner proteases (caspases and cathepsin B) were performed on crude cytoplasmic extracts (Stegh et al., 2000). Briefly, MEFs (10^6) were lysed in 10 mM Tris-Cl, pH 7.5, 100 mM NaCl, 1 mM EDTA, 0.01% Triton X-100 (50 μl) for 30 min on ice then centrifuged at 15,000 g for 30 min at 4° C. and the supernatant recovered. Protein concentration was determined by Lowry assay (DC-protein assay kit, Biorad). Western immunoblots were performed on crude cytosolic extracts (50 μg per lane) using standard protocols and probed with the following antibodies: goat anti-mouse Bid antiserum (1 μg/ml; R&D systems), rabbit anti-human caspase 9 antiserum (2 μg/ml; Cell Signaling Technology), rabbit anti-human caspase 3 antiserum (2 μg/ml; Cell Signaling Technology), mouse anti-human caspase 8 monoclonal antibody clone 12F5 (1 μg/ml; Axxora). […]
Mitochondrial membrane potential and ROS production were measured using the fluorescent dyes JC-1 (3 μg/ml) and dihydroethidium (HE) (5 μM)(Molecular Probes) respectively, and flow cytometry according to the manufacturer's instructions.

[3] = tested on: RelA^−/− MEFs; experiment: Survival assay, TNF-α and CHX, RelA^−/− MEFs; type: cell-based, mouse
[4] = tested on: CD8 cells and B lymphocytes in PBLs; experiment: Generation of bone marrow chimeras transduced with retrovirus: engraftment of CD8 cells and B lymphocytes in PBLs; type: in vivo, mouse; conditions: 8 weeks after bone-marrow transfer, before infection; vs GFP mice
[5] = tested on: RelA^−/− MEFs; experiment: Lysosome internal pH (acridine orange, flow cytometry), RelA^−/− MEFs; type: cell-based, mouse; conditions: TNF-α 0.2 ng/ml, CHX 0.1 μg/ml; FIG. 8
Protocol: FIG. 8. Spi2A offers partial protection of lysosomal de-acidification in […]. RelA^−/− MEFs were transduced by retrovirus encoding GFP alone or Spi2A as indicated by the percentage AO-low cells after treatment with TNF-α (0.2 ng/ml) and CHX (0.1 μg/ml). The percentage of intact lysosomes was determined by staining with AO as has been described previously (Zhao et al., 2000). Briefly, cells were incubated with AO (5 μg/ml), washed and collected for flow cytometric assessment of uptake into intact lysosomes as indicated by red fluorescence (FL3 channel).
The inhibitory reaction was too fast to be measured using our conventional spectrophotometer. […] Lysosome internal pH was measured by staining with the weak basic, lysosomotropic dye—acridine orange (AO)— and flow cytometry (Zhao et al., 2000). Increase in lysosomal pH results a corresponding decrease in AO red fluorescence and the appearance of AO-low cells. It was shown that TNF-R1 cross-linking results in the appearance of AO-low cells in Rel A^−/− MEFs transduced with control retrovirus (GFP) (Supplementary FIG. 4). […] The appearance of AO-low cells can be interpreted as lysosomal rupture, and so it is possible that Spi2A in some way protects lysosomes from damage induced by TNF-α.

[6] = target: T1, caspase 9 (Homo sapiens, UniProt P55211); experiment: Protease specificity of Spi2A: caspase 9; type: biochemical; conditions: FIG. 6B
T1 construct: purchased Calbiochem or Athens Research and Technology
T1 sequence (P55211 1-315 limits assumed): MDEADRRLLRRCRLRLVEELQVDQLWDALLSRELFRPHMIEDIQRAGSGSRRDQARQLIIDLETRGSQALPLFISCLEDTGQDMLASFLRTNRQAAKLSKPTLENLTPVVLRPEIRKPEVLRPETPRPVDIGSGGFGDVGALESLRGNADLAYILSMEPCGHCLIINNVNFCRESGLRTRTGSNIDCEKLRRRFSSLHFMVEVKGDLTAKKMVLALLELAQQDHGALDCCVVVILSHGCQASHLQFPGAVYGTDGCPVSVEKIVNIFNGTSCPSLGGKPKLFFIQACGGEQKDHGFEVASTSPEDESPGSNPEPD
T1 sequence (P55211 331-416 limits assumed): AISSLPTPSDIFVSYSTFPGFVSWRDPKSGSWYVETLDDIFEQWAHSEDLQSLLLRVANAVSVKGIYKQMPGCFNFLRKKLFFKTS
Protocol: Protease specificity of Spi2A. RelA^−/− MEFs were transduced with retrovirus encoding Spi2A with a C-terminal 3×FLAG epitope tag and Spi2A-3×FLAG purified using a method described previously (Cooley et al., 1998). Briefly, cells (3×10^9) were lysed and Spi2A-3×FLAG (75 μg) purified by batch Q-Fast Flow ion-exchange chromatography (Pharmacia Biotech) after elution at 160-220 mM NaCl followed by anti-FLAG antibody columns, performed according to manufacturer's instructions (Sigma-Aldrich). Spi2A-3×FLAG was dialysed into PBS and stored as aliquots at −80° C. until needed.
Proteases were purchases from the manufacturers (Calbiochem or Athens Research and Technology) except granzymes A and B which were purified as described (Hanna et al., 1993) and cathespin V and K, which were purified as described (Bromme et al., 1999; Linnevers et al., 1997). Proteases (20 nM) were incubated in the appropriate assay buffer with Spi2A at 200 nM (at least 10-fold excess of inhibitor to maintain pseudo-first order conditions) for 1 h at 37° C. Control samples included only the enzyme, without the inhibitor. At the end of 1 h protease activity was assayed. […] Substrate hydrolysis was measured in a fluorescence microtiter plate reader (Spectramax Gemini XS, Molecular Devices). Percentage inhibition was calculated from the residual enzyme activity compared to no Spi2A controls. […]

B1: Spi2A: murine Spi2A polypeptide, SEQ ID NO:2; purified as C-terminal 3×FLAG protein or expressed from MIGR1 retrovirus in cells and bone-marrow chimeras (protein, listed as Mus musculus)
chain: MAGVSPAVFGCPDVTLGRNTAVREVQENVTSVDSLTLVSSNTDFAFSLYRKLVLKNPDENVVFSPFSICTALALLSLGAKSNTLKEILEGLKFNLTETPEPDIHQGFRYLLDLLSQPGNQVQISTGSALFIEKHLQILAEFKEKARALYQAEAFTADFQQPLKATKLINDYVSNHTQGKIKELISGLKESTLMVLVNYIYFKGKWKNPFDPNDTFKSEFYLDEKRSVIVSMMKTGYLTTPYFRDEELSCTVVELKYTGNASAMFILPDQGRMQQVEASLQPETLRKWKNSLKPRMIHELRLPKFSISTDYSLEHILPELGIREVFSTHADLSAITGTKDLRVSQVVHKAVLDVAEKGTEAAAATGMAGVGCCAVFDFLEIFFNRPFLMIISDTKAHIALFMAKVTNPERSTNFPNGEGASSQRLESKRLCFGDPLCLIGQ
modifications: C-terminal 3xFLAG tag
notes: purified as C-terminal 3×FLAG protein or expressed from MIGR1 retrovirus in cells and bone-marrow chimeras
[1]
  Number of anti-LCMV CD8 cells per spleen GFP^−: 45.94 ± 7.55 (n = 4) ×10^−5
  Percentages and absolute numbers of secondary anti-LCMV CD8 cells (recall response): significantly increased
  proportional change of anti-LCMV CD8 cells compared to the GFP control: (417%)
[2]
  production of reactive oxygen species (ROS): suppressed
[3]; 0.5 ng/ml TNF-α, FIG. 2B
  Protection at low concentrations of TNF-α: virtually complete
[3]; 16 h, CHX 0.1 μg/ml, FIG. 1B, 2B
  Percentage survival after TNF-α and CHX, retrovirally transduced cells vs GFP: markedly improved survival
[3]; after 16 hours, FIG. 2B
  Protection at high concentrations of TNF-α: dramatic
[4]
  Percentage of CD8 cells in transduced (GFP-positive) PBLs: no difference
[5]
  Appearance of AO-low cells (lysosomal de-acidification): less AO-low cells
[6]
  Inhibition of protease by Spi2A (percentage inhibition): did not extend to any of the caspases tested
